# Measured values reported in the supplement of paper PMC11316812.
# ± gives the standard deviation of the averaged measurements.
# Tests used:
# [1] = system: hTERT-HMEC; test: percentage of EdU-negative (G0-arrested) nuclei per well, 72 h; higher = more G0 arrest; details: reference: sequence is the full UniProt precursor, the tested protein was the secreted form or ectodomain
# [2] = system: MCF7; test: as above; details: reference: sequence is the full UniProt precursor, the tested protein was the secreted form or ectodomain
# [3] = protein concentration 0.00975 µM
# [4] = protein concentration 0.0975 µM
# [5] = protein concentration 0.0205 µM
# [6] = protein concentration 0.0257143 µM
# [7] = protein concentration 0.257143 µM
# [8] = protein concentration 0.0209225 µM
# [9] = protein concentration 0.209225 µM
# [10] = protein concentration 0.0225 µM
# [11] = protein concentration 0.01655 µM
# [12] = protein concentration 0.1655 µM
# [13] = protein concentration 0.0308571 µM
# [14] = protein concentration 0.308571 µM
# [15] = protein concentration 0.03125 µM
# [16] = protein concentration 0.3125 µM
# 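Further: secreted proteins added to cultured cells, EdU pulse at the end, nuclei found by Hoechst imaging, EdU status from nuclear versus surrounding ring intensity ratio, PBS as neutral control.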
sequence,measurement,setting,value
MPGPRRPAGSRLRLLLLLLLPPLLLLLRGSHAGNLTVAVVLPLANTSYPWSWARVGPAVELALAQVKARPDLLPGWTVRTVLGSSENALGVCSDTAAPLAAVDLKWEHNPAVFLGPGCVYAAAPVGRFTAHWRVPLLTAGAPALGFGVKDEYALTTRAGPSYAKLGDFVAALHRRLGWERQALMLYAYRPGDEEHCFFLVEGLFMRVRDRLNITVDHLEFAEDDLSHYTRLLRTMPRKGRVIYICSSPDAFRTLMLLALEAGLCGEDYVFFHLDIFGQSLQGGQGPAPRRPWERGDGQDVSARQAFQAAKIITYKDPDNPEYLEFLKQLKHLAYEQFNFTMEDGLVNTIPASFHDGLLLYIQAVTETLAHGGTVTDGENITQRMWNRSFQGVTGYLKIDSSGDRETDFSLWDMDPENGAFRVVLNYNGTSQELVAVSGRKLNWPLGYPPPDIPKCGFDNEDPACNQDHLSTLEVLALVGSLSLLGILIVSFFIYRKMQLEKELASELWRVRWEDVEPSSLERHLRSAGSRLTLSGRGSNYGSLLTTEGQFQVFAKTAYYKGNLVAVKRVNRKRIELTRKVLFELKHMRDVQNEHLTRFVGACTDPPNICILTEYCPRGSLQDILENESITLDWMFRYSLTNDIVKGMLFLHNGAICSHGNLKSSNCVVDGRFVLKITDYGLESFRDLDPEQGHTVYAKKLWTAPELLRMASPPVRGSQAGDVYSFGIILQEIALRSGVFHVEGLDLSPKEIIERVTRGEQPPFRPSLALQSHLEELGLLMQRCWAEDPQERPPFQQIRLTLRKFNRENSSNILDNLLSRMEQYANNLEELVEERTQAYLEEKRKAEALLYQILPHSVAEQLKRGETVQAEAFDSVTIYFSDIVGFTALSAESTPMQVVTLLNDLYTCFDAVIDNFDVYKVETIGDAYMVVSGLPVRNGRLHACEVARMALALLDAVRSFRIRHRPQEQLRLRIGIHTGPVCAGVVGLKMPRYCLFGDTVNTASRMESNGEALKIHLSSETKAVLEEFGGFELELRGDVEMKGKGKVRTYWLLGERGSSTRG,percentage of EdU-negative,[1]; [3],4.49 ± 0.51%
same,percentage of EdU-negative,[1]; [4],7.62 ± 0.42%
same,percentage of EdU-negative,[2]; [3],23.4 ± 0.38%
same,percentage of EdU-negative,[2]; [4],29.51 ± 0.041%
MPGPRVWGKYLWRSPHSKGCPGAMWWLLLWGVLQACPTRGSVLLAQELPQQLTSPGYPEPYGKGQESSTDIKAPEGFAVRLVFQDFDLEPSQDCAGDSVTISFVGSDPSQFCGQQGSPLGRPPGQREFVSSGRSLRLTFRTQPSSENKTAHLHKGFLALYQTVAVNYSQPISEASRGSEAINAPGDNPAKVQNHCQEPYYQAAAAGALTCATPGTWKDRQDGEEVLQCMPVCGRPVTPIAQNQTTLGSSRAKLGNFPWQAFTSIHGRGGGALLGDRWILTAAHTIYPKDSVSLRKNQSVNVFLGHTAIDEMLKLGNHPVHRVVVHPDYRQNESHNFSGDIALLELQHSIPLGPNVLPVCLPDNETLYRSGLLGYVSGFGMEMGWLTTELKYSRLPVAPREACNAWLQKRQRPEVFSDNMFCVGDETQRHSVCQGDSGSVYVVWDNHAHHWVATGIVSWGIGCGEGYDFYTKVLSYVDWIKGVMNGKN [Q9NZP8],percentage of EdU-negative,[1]; [5],6.35 ± 0.51%
same,percentage of EdU-negative,[1]; protein concentration 0.205 µM,7.52 ± 1.6%
same,percentage of EdU-negative,[2]; [5],25.9 ± 0.29%
same,percentage of EdU-negative,[2]; protein concentration 0.205 µM,26.4 ± 0.027%
MPGPSPGLRRALLGLWAALGLGLFGLSAVSQEPFWADLQPRVAFVERGGSLWLNCSTNCPRPERGGLETSLRRNGTQRGLRWLARQLVDIREPETQPVCFFRCARRTLQARGLIRTFQRPDRVELMPLPPWQPVGENFTLSCRVPGAGPRASLTLTLLRGAQELIRRSFAGEPPRARGAVLTATVLARREDHGANFSCRAELDLRPHGLGLFENSSAPRELRTFSLSPDAPRLAAPRLLEVGSERPVSCTLDGLFPASEARVYLALGDQNLSPDVTLEGDAFVATATATASAEQEGARQLVCNVTLGGENRETRENVTIYSFPAPLLTLSEPSVSEGQMVTVTCAAGAQALVTLEGVPAAVPGQPAQLQLNATENDDRRSFFCDATLDVDGETLIKNRSAELRVLYAPRLDDSDCPRSWTWPEGPEQTLRCEARGNPEPSVHCARSDGGAVLALGLLGPVTRALSGTYRCKAANDQGEAVKDVTLTVEYAPALDSVGCPERITWLEGTEASLSCVAHGVPPPDVICVRSGELGAVIEGLLRVAREHAGTYRCEATNPRGSAAKNVAVTVEYGPRFEEPSCPSNWTWVEGSGRLFSCEVDGKPQPSVKCVGSGGATEGVLLPLAPPDPSPRAPRIPRVLAPGIYVCNATNRHGSVAKTVVVSAESPPEMDESTCPSHQTWLEGAEASALACAARGRPSPGVRCSREGIPWPEQQRVSREDAGTYHCVATNAHGTDSRTVTVGVEYRPVVAELAASPPGGVRPGGNFTLTCRAEAWPPAQISWRAPPGALNIGLSSNNSTLSVAGAMGSHGGEYECAATNAHGRHARRITVRVAGPWLWVAVGGAAGGAALLAAGAGLAFYVQSTACKKGEYNVQEAESSGEAVCLNGAGGGAGGAAGAEGGPEAAGGAAESPAEGEVFAIQLTSA [Q9UMF0],percentage of EdU-negative,[1]; protein concentration 0.015 µM,5.32 ± 0.067%
same,percentage of EdU-negative,[1]; protein concentration 0.15 µM,90.88 ± 0.53%
same,percentage of EdU-negative,[2]; protein concentration 0.015 µM,26.9 ± 2.4%
same,percentage of EdU-negative,[2]; protein concentration 0.15 µM,36.9 ± 2.7%
MPGPWLLLALALTLNLTGVPGGRAQPEAAQQEAVTAAEHPGLDDFLRQVERLLFLRENIQRLQGDQGEHSASQIFQSDWLSKRQHPGKREEEEEEGVEEEEEEEGGAVGPHKRQHPGRREDEASWSVDVTQHKRQHPGRRSPWLAYAVPKRQHPGRRLADPKAQRSWEEEEEEEEREEDLMPEKRQHPGKRALGGPCGPQGAYGQAGLLLGLLDDLSRSQGAEEKRQHPGRRAAWVREPLEE,percentage of EdU-negative,[1]; [6],5.72 ± 0.18%
same,percentage of EdU-negative,[1]; [7],5.31 ± 0.67%
same,percentage of EdU-negative,[2]; [6],23.3 ± 4.8%
same,percentage of EdU-negative,[2]; [7],25.8 ± 1.8%
MPGQELRTVNGSQMLLVLLVLSWLPHGGALSLAEASRASFPGPSELHSEDSRFRELRKRYEDLLTRLRANQSWEDSNTDLVPAPAVRILTPEVRLGSGGHLHLRISRAALPEGLPEASRLHRALFRLSPTASRSWDVTRPLRRQLSLARPQAPALHLRLSPPPSQSDQLLAESSSARPQLELHLRPQAARGRRRARARNGDHCPLGPGRCCRLHTVRASLEDLGWADWVLSPREVQVTMCIGACPSQFRAANMHAQIKTSLHRLKPDTVPAPCCVPASYNPMVLIQKTDTGVSLQTYDDLLAKDCHCI,percentage of EdU-negative,[1]; [8],4.78 ± 0.13%
same,percentage of EdU-negative,[1]; [9],8.07 ± 2.2%
same,percentage of EdU-negative,[2]; [8],23.8 ± 1.7%
same,percentage of EdU-negative,[2]; [9],30.5 ± 2.1%
MPGRSCVALVLLAAAVSCAVAQHAPPWTEDCRKSTYPPSGPTYRGAVPWYTINLDLPPYKRWHELMLDKAPVLKVIVNSLKNMINTFVPSGKIMQVVDEKLPGLLGNFPGPFEEEMKGIAAVTDIPLGEIISFNIFYELFTICTSIVAEDKKGHLIHGRNMDFGVFLGWNINNDTWVITEQLKPLTVNLDFQRNNKTVFKASSFAGYVGMLTGFKPGLFSLTLNERFSINGGYLGILEWILGKKDVMWIGFLTRTVLENSTSYEEAKNLLTKTKILAPAYFILGGNQSGEGCVITRDRKESLDVYELDAKQGRWYVVQTNYDRWKHPFFLDDRRTPAKMCLNRTSQENISFETMYDVLSTKPVLNKLTVYTTLIDVTKGQFETYLRDCPDPCIGW,percentage of EdU-negative,[1]; [10],4.75 ± 0.61%
same,percentage of EdU-negative,[1]; protein concentration 0.225 µM,12.9 ± 1.1%
same,percentage of EdU-negative,[2]; [10],26.7 ± 2.9%
same,percentage of EdU-negative,[2]; protein concentration 0.225 µM,26.1 ± 0.96%
MPGSPRPAPSWVLLLRLLALLRPPGLGEACSCAPAHPQQHICHSALVIRAKISSEKVVPASADPADTEKMLRYEIKQIKMFKGFEKVKDVQYIYTPFDSSLCGVKLEANSQKQYLLTGQVLSDGKVFIHLCNYIEPWEDLSLVQRESLNHHYHLNCGCQITTCYTVPCTISAPNECLWTDWLLERKLYGYQAQHYVCMKHVDGTCSWYRGHLPLRKEFVDIVQP,percentage of EdU-negative,[1]; [11],5.41 ± 0.19%
same,percentage of EdU-negative,[1]; [12],6.76 ± 0.1%
same,percentage of EdU-negative,[2]; [11],26.2 ± 1.7%
same,percentage of EdU-negative,[2]; [12],27.1 ± 0.65%
MPKGRQKVPHLDAPLGLPTCLWLELAGLFLLVPWVMGLAGTGGPDGQGTGGPSWAVHLESLEGDGEEETLEQQADALAQAAGLVNAGRIGELQGHYLFVQPAGHRPALEVEAIRQQVEAVLAGHEAVRWHSEQRLLRRAKRSVHFNDPKYPQQWHLNNRRSPGRDINVTGVWERNVTGRGVTVVVVDDGVEHTIQDIAPNYSPEGSYDLNSNDPDPMPHPDVENGNHHGTRCAGEIAAVPNNSFCAVGVAYGSRIAGIRVLDGPLTDSMEAVAFNKHYQINDIYSCSWGPDDDGKTVDGPHQLGKAALQHGVIAGRQGFGSIFVVASGNGGQHNDNCNYDGYANSIYTVTIGAVDEEGRMPFYAEECASMLAVTFSGGDKMLRSIVTTDWDLQKGTGCTEGHTGTSAAAPLAAGMIALMLQVRPCLTWRDVQHIIVFTATRYEDRRAEWVTNEAGFSHSHQHGFGLLNAWRLVNAAKIWTSVPYLASYVSPVLKENKAIPQSPRSLEVLWNVSRMDLEMSGLKTLEHVAVTVSITHPRRGSLELKLFCPSGMMSLIGAPRSMDSDPNGFNDWTFSTVRCWGERARGTYRLVIRDVGDESFQVGILRQWQLTLYGSVWSAVDIRDRQRLLESAMSGKYLHDDFALPCPPGLKIPEEDGYTITPNTLKTLVLVGCFTVFWTVYYMLEVYLSQRNVASNQVCRSGPCHWPHRSRKAKEEGTELESVPLCSSKDPDEVETESRGPPTTSDLLAPDLLEQGDWSLSQNKSALDCPHQHLDVPHGKEEQIC,percentage of EdU-negative,[1]; [10],4.85 ± 0.1%
same,percentage of EdU-negative,[1]; protein concentration 0.225 µM,5.83 ± 0.0087%
same,percentage of EdU-negative,[2]; [10],25.2 ± 2.4%
same,percentage of EdU-negative,[2]; protein concentration 0.225 µM,25.9 ± 0.42%
MPLGLLWLGLALLGALHAQAQDSTSDLIPAPPLSKVPLQQNFQDNQFQGKWYVVGLAGNAILREDKDPQKMYATIYELKEDKSYNVTSVLFRKKKCDYWIRTFVPGCQPGEFTLGNIKSYPGLTSYLVRVVSTNYNQHAMVFFKKVSQNREYFKITLYGRTKELTSELKENFIRFSKSLGLPENHIVFPVPIDQCIDG,percentage of EdU-negative,[1]; [13],4.56 ± 0.62%
same,percentage of EdU-negative,[1]; [14],8.76 ± 0.27%
same,percentage of EdU-negative,[2]; [13],26.8 ± 1.9%
same,percentage of EdU-negative,[2]; [14],28.2 ± 1.9%
MPLLWLRGFLLASCWIIVRSSPTPGSEGHSAAPDCPSCALAALPKDVPNSQPEMVEAVKKHILNMLHLKKRPDVTQPVPKAALLNAIRKLHVGKVGENGYVEIEDDIGRRAEMNELMEQTSEIITFAESGTARKTLHFEISKEGSDLSVVERAEVWLFLKVPKANRTRTKVTIRLFQQQKHPQGSLDTGEEAEEVGLKGERSELLLSEKVVDARKSTWHVFPVSSSIQRLLDQGKSSLDVRIACEQCQESGASLVLLGKKKKKEEEGEGKKKGGGEGGAGADEEKEQSHRPFLMLQARQSEDHPHRRRRRGLECDGKVNICCKKQFFVSFKDIGWNDWIIAPSGYHANYCEGECPSHIAGTSGSSLSFHSTVINHYRMRGHSPFANLKSCCVPTKLRPMSMLYYDDGQNIIKKDIQNMIVEECGCS,percentage of EdU-negative,[1]; [15],5.64 ± 0.18%
same,percentage of EdU-negative,[1]; [16],5.29 ± 1.4%
same,percentage of EdU-negative,[2]; [15],26.6 ± 1.6%
same,percentage of EdU-negative,[2]; [16],27.8 ± 1.4%
